In this assay the target is CX1 S ectodomain with stabilizing mutations. In words: AUC.

Chain of peptidase domain (PD) of hACE2 (Q9BYF1 19-615): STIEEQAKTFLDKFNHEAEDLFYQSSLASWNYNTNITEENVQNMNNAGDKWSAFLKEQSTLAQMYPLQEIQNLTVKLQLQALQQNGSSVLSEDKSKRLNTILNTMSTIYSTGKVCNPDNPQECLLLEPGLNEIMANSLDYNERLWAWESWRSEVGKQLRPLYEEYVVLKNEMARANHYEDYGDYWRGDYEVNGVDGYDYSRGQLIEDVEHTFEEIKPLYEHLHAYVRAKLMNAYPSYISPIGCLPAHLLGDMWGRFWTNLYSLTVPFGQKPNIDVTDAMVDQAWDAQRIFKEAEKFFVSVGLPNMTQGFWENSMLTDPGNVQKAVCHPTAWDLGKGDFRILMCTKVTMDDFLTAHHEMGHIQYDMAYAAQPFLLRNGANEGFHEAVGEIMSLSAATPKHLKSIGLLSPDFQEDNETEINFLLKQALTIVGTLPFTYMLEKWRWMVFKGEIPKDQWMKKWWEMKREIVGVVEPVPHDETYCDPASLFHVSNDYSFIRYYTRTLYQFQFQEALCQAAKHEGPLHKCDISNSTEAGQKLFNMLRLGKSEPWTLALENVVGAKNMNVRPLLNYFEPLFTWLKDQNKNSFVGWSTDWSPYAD

“peptidase domain (PD) of hACE2 (from UniProt Q9BYF1 19-615) (domain or fragment)”: the stoichiometry N (hACE2 molecules per S trimer) amounted to 2.
